Eleven molecules from paper PMC6820745, “Structural and thermodynamic basis for the recognition of the substrate-binding cleft on hen egg lysozyme by a single-domain antibody” (Scientific Reports, 2019) can be followed below.

Common to all, as to settings: both partners purified
Assay [1] deals with T1, hen egg lysozyme (hen, UniProt P00698 19-147).
T1 construct: hen egg lysozyme (HEL), bought, used without further purification; also called HEL; source: bought: Wako Pure Chemical (Cat. No. 126-02671)
T1 sequence (P00698 19-147): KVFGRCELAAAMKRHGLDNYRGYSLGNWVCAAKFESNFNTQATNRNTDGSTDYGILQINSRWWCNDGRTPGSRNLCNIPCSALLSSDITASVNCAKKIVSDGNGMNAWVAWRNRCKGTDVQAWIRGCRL
As to the kind of experiment: SPR; HEL immobilised on CM5 chip (200 RU), VHH flowed over, multi-cycle, 18 °C, PBS with 0.005% Tween 20, global fit to a 1:1 binding model. On the technique in general: Surface plasmon resonance follows binding to a sensor surface in real time, without labels.

Assay [2] concerns the target T1, hen egg lysozyme. The assay can be described thus: SPR; HEL immobilised on CM5 chip (200 RU), VHH flowed over, multi-cycle, 14 °C, PBS with 0.005% Tween 20, global fit to a 1:1 binding model.
In assay [3] the target is T1, hen egg lysozyme. The assay can be described thus: SPR; HEL immobilised on CM5 chip (200 RU), VHH flowed over, multi-cycle, 22 °C, PBS with 0.005% Tween 20, global fit to a 1:1 binding model.
Assay [4] concerns the target T1, hen egg lysozyme. As to the kind of experiment: SPR; HEL immobilised on CM5 chip (200 RU), VHH flowed over, multi-cycle, 30 °C, PBS with 0.005% Tween 20, global fit to a 1:1 binding model.
Assay [5] addresses T1, hen egg lysozyme. As to the kind of experiment: SPR; HEL immobilised on CM5 chip (200 RU), VHH flowed over, multi-cycle, 10 °C, PBS with 0.005% Tween 20, global fit to a 1:1 binding model.
The target of assay [6] is T1, hen egg lysozyme. As to the kind of experiment: ITC; iTC200, 25 °C, PBS; VHH (10 µM) in the cell titrated with HEL (100 µM); 1:1 binding model; two independent measurements.
Assay [7] deals with T1, hen egg lysozyme. As to the kind of experiment: SPR; HEL immobilised on CM5 chip (200 RU), VHH flowed over, multi-cycle, 26 °C, PBS with 0.005% Tween 20, global fit to a 1:1 binding model.
For assay [8], the target named is T2, hen egg lysozyme (Gallus gallus (hen), UniProt P00698).
T2 construct: hen egg lysozyme (lysozyme C), bought from Wako Pure Chemical; also called HEL; source: bought: Wako Pure Chemical (Cat. No. 126-02671), used without further purification
T2 sequence (P00698 19-147): as above
As to the kind of experiment: SPR; Biacore T200; HEL immobilised on CM5 chip (200 RU); VHH flowed over; 25 °C; PBS with 0.005% Tween 20; global fit to a 1:1 binding model. In outline: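 Binding of the His6-tagged single-domain antibody, expressed in E. coli BL21(DE3) and purified by Ni-NTA and size-exclusion chromatography, was measured by surface plasmon resonance on a Biacore T200 against hen egg lysozyme immobilised on a CM5 chip (200 RU). Runs were at 25 °C in PBS with 0.005% Tween 20, with 300 s contact, 600 s dissociation and regeneration in 1.0 M Arg-HCl pH 4.4. Antibody concentrations were adjusted per mutant. Kd, kon and koff came from global fitting to a 1:1 binding model in BiaEvaluation.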

The target of assay [9] is T2, hen egg lysozyme. The assay can be described thus: SPR; as a1, but KD from the responses in equilibrium (Scatchard plot, 1:1 model); HEL immobilised; 25 °C; PBS with 0.005% Tween 20.
The target in assay [10] is T1, hen egg lysozyme. As to the kind of experiment: SPR; HEL immobilised on CM5 chip (200 RU), VHH flowed over, 26 °C, PBS with 0.005% Tween 20, steady-state responses (Scatchard plot), 1:1 binding model.
The target in assay [11] is T1, hen egg lysozyme. The assay can be described thus: SPR; HEL immobilised on CM5 chip (200 RU), VHH flowed over, multi-cycle, 26 °C, PBS with 0.005% Tween 20, global fit to a 1:1 binding model. This is another data set of the same source.
Assay [12] has as its target T1, hen egg lysozyme. The assay can be described thus: SPR; HEL immobilised on CM5 chip (200 RU), VHH flowed over, 10 °C, PBS with 0.005% Tween 20, steady-state responses (Scatchard plot), 1:1 binding model.
The target in assay [13] is T1, hen egg lysozyme. As to the kind of experiment: SPR; HEL immobilised on CM5 chip (200 RU), VHH flowed over, multi-cycle, 18 °C, PBS with 0.005% Tween 20, global fit to a 1:1 binding model. The source holds these as a separate data set.
Assay [14] addresses T1, hen egg lysozyme. The assay can be described thus: SPR; HEL immobilised on CM5 chip (200 RU), VHH flowed over, 30 °C, PBS with 0.005% Tween 20, steady-state responses (Scatchard plot), 1:1 binding model.
For assay [15], the target named is T1, hen egg lysozyme. The assay can be described thus: SPR; HEL immobilised on CM5 chip (200 RU), VHH flowed over, multi-cycle, 10 °C, PBS with 0.005% Tween 20, global fit to a 1:1 binding model. The source holds these as a separate data set.
Assay [16] concerns the target T1, hen egg lysozyme. The assay can be described thus: SPR; HEL immobilised on CM5 chip (200 RU), VHH flowed over, multi-cycle, 22 °C, PBS with 0.005% Tween 20, global fit to a 1:1 binding model. This is another data set of the same source.
Assay [17] addresses T1, hen egg lysozyme. As to the kind of experiment: SPR; HEL immobilised on CM5 chip (200 RU), VHH flowed over, 22 °C, PBS with 0.005% Tween 20, steady-state responses (Scatchard plot), 1:1 binding model.
Assay [18] addresses T1, hen egg lysozyme. As to the kind of experiment: SPR; HEL immobilised on CM5 chip (200 RU), VHH flowed over, 14 °C, PBS with 0.005% Tween 20, steady-state responses (Scatchard plot), 1:1 binding model.
In assay [19] the target is T1, hen egg lysozyme. The assay can be described thus: SPR; HEL immobilised on CM5 chip (200 RU), VHH flowed over, 18 °C, PBS with 0.005% Tween 20, steady-state responses (Scatchard plot), 1:1 binding model.
Assay [20] concerns the target T1, hen egg lysozyme. The assay can be described thus: SPR; HEL immobilised on CM5 chip (200 RU), VHH flowed over, multi-cycle, 14 °C, PBS with 0.005% Tween 20, global fit to a 1:1 binding model. This is another data set of the same source.

B1: D3-L11 (wild type), VHH specific for hen egg lysozyme (VHH)
VHH: DVQLVESGGGSVQAGGSLRLSCAASGSTDSIEYMTWFRQAPGKAREGVAALYTHTGNTYYTDSVKGRFTISQDKAKNMAYLRMDSVKSEDTAIYTCGATRKYVPVRFALDQSSYDYWGQGTQVTVSS
notes: also called WT; WT antibody; source: E. coli BL21(DE3), purified (Ni-NTA, SEC)
Regarding B1, the Kd worked out at 0.0549 nM with hen egg lysozyme [1]; 0.0395 nM in the assay with hen egg lysozyme [2]; 0.0897 nM with hen egg lysozyme [3]; 0.177 nM with hen egg lysozyme [4]; 0.0267 nM with hen egg lysozyme [5]; 3.8 nM with hen egg lysozyme [6]. In the assay with hen egg lysozyme [7], this molecule gave a Kd of 0.127 nM. For the same molecule, the off-rate (koff) with hen egg lysozyme [1] is 0.000274 s⁻¹; with hen egg lysozyme [2], 0.000139 s⁻¹; with hen egg lysozyme [3], 0.000492 s⁻¹; in the assay with hen egg lysozyme [4], 0.0015 s⁻¹; with hen egg lysozyme [5], 7.52e-05 s⁻¹; with hen egg lysozyme [7] it was 0.000847 s⁻¹. The association rate constant (kon) turned out to be 4.99e+06 M⁻¹ s⁻¹ with hen egg lysozyme [1]; 3.52e+06 M⁻¹ s⁻¹ in the assay with hen egg lysozyme [2]; 5.48e+06 M⁻¹ s⁻¹ with hen egg lysozyme [3]; 8.48e+06 M⁻¹ s⁻¹ in the assay with hen egg lysozyme [4]; 2.81e+06 M⁻¹ s⁻¹ with hen egg lysozyme [5]; 6.81e+06 M⁻¹ s⁻¹ with hen egg lysozyme [7]. The “stoichiometry N” value in the assay with hen egg lysozyme [6] stood at 0.88.

B2: D3-L11 P104A (VHH)
VHH: DVQLVESGGGSVQAGGSLRLSCAASGSTDSIEYMTWFRQAPGKAREGVAALYTHTGNTYYTDSVKGRFTISQDKAKNMAYLRMDSVKSEDTAIYTCGATRKYVAVRFALDQSSYDYWGQGTQVTVSS
notes: as the VHH chain of m2 with the stated change; source: E. coli BL21(DE3), purified (Ni-NTA, SEC)
In the assay with hen egg lysozyme [8], B2 showed an equilibrium dissociation constant (Kd) of 13 nM, a koff of 0.226 s⁻¹ and a kon of 1.74e+07 M⁻¹ s⁻¹. The Kd with hen egg lysozyme [9] was 44.8 ± 19 nM.

B3: D3-L11 K101A (VHH)
VHH: DVQLVESGGGSVQAGGSLRLSCAASGSTDSIEYMTWFRQAPGKAREGVAALYTHTGNTYYTDSVKGRFTISQDKAKNMAYLRMDSVKSEDTAIYTCGATRAYVPVRFALDQSSYDYWGQGTQVTVSS
notes: as for B2
Turning to B3, in the assay with hen egg lysozyme [8], binding was put at a Kd of 0.0911 nM, the koff stood at 0.000687 s⁻¹ and the kon stood at 7.54e+06 M⁻¹ s⁻¹.

B4: D3-L11 S113A (VHH)
VHH: DVQLVESGGGSVQAGGSLRLSCAASGSTDSIEYMTWFRQAPGKAREGVAALYTHTGNTYYTDSVKGRFTISQDKAKNMAYLRMDSVKSEDTAIYTCGATRKYVPVRFALDQSAYDYWGQGTQVTVSS
notes: as for B2
For B4, in the assay with hen egg lysozyme [8], the Kd was 1.61 nM, the off-rate constant (koff) came out at 0.00831 s⁻¹ and the kon turned out to be 5.17e+06 M⁻¹ s⁻¹.

B5: D3-L11 E32A (VHH)
VHH: DVQLVESGGGSVQAGGSLRLSCAASGSTDSIAYMTWFRQAPGKAREGVAALYTHTGNTYYTDSVKGRFTISQDKAKNMAYLRMDSVKSEDTAIYTCGATRKYVPVRFALDQSSYDYWGQGTQVTVSS
notes: as for B2
Turning to B5, in the assay with hen egg lysozyme [8], the Kd was found to be 1.87 nM, the koff was determined as 0.012 s⁻¹ and the kon amounted to 6.43e+06 M⁻¹ s⁻¹.

B6: D3-L11 H54A (VHH)
VHH: DVQLVESGGGSVQAGGSLRLSCAASGSTDSIEYMTWFRQAPGKAREGVAALYTATGNTYYTDSVKGRFTISQDKAKNMAYLRMDSVKSEDTAIYTCGATRKYVPVRFALDQSSYDYWGQGTQVTVSS
notes: as for B2
As to B6, in the assay with hen egg lysozyme [8], the equilibrium dissociation constant (Kd) is 2.65 nM, the koff is 0.00921 s⁻¹ and the on-rate constant (kon) came to 3.48e+06 M⁻¹ s⁻¹.

B7: D3-L11 R106A (VHH)
VHH: DVQLVESGGGSVQAGGSLRLSCAASGSTDSIEYMTWFRQAPGKAREGVAALYTHTGNTYYTDSVKGRFTISQDKAKNMAYLRMDSVKSEDTAIYTCGATRKYVPVAFALDQSSYDYWGQGTQVTVSS
notes: as for B2
In the assay with hen egg lysozyme [8], B7 came in with a Kd of 1.65 nM, an off-rate (koff) of 0.00183 s⁻¹ and an association rate constant (kon) of 1.11e+06 M⁻¹ s⁻¹.

B8: D3-L11 F107A (VHH)
VHH: DVQLVESGGGSVQAGGSLRLSCAASGSTDSIEYMTWFRQAPGKAREGVAALYTHTGNTYYTDSVKGRFTISQDKAKNMAYLRMDSVKSEDTAIYTCGATRKYVPVRAALDQSSYDYWGQGTQVTVSS
notes: as for B2
In the assay with hen egg lysozyme [8], B8 registered a Kd of 1.63 nM, an off-rate constant (koff) of 0.0147 s⁻¹ and a kon of 8.99e+06 M⁻¹ s⁻¹.

B9: D3-L11 T55A (VHH)
VHH: DVQLVESGGGSVQAGGSLRLSCAASGSTDSIEYMTWFRQAPGKAREGVAALYTHAGNTYYTDSVKGRFTISQDKAKNMAYLRMDSVKSEDTAIYTCGATRKYVPVRFALDQSSYDYWGQGTQVTVSS
notes: as for B2
In the assay with hen egg lysozyme [8], B9 gave a Kd of 2.99 nM, a koff of 0.0113 s⁻¹ and a kon of 3.77e+06 M⁻¹ s⁻¹.

B10: D3-L11 D115A (VHH)
VHH: DVQLVESGGGSVQAGGSLRLSCAASGSTDSIEYMTWFRQAPGKAREGVAALYTHTGNTYYTDSVKGRFTISQDKAKNMAYLRMDSVKSEDTAIYTCGATRKYVPVRFALDQSSYAYWGQGTQVTVSS
notes: as for B2
In the assay with hen egg lysozyme [8], B10 gave a Kd of 0.156 nM, a koff of 0.000956 s⁻¹ and a kon of 6.11e+06 M⁻¹ s⁻¹.

B11: D3-L11 Y52A (VHH)
VHH: DVQLVESGGGSVQAGGSLRLSCAASGSTDSIEYMTWFRQAPGKAREGVAALATHTGNTYYTDSVKGRFTISQDKAKNMAYLRMDSVKSEDTAIYTCGATRKYVPVRFALDQSSYDYWGQGTQVTVSS
notes: the substitution is still to be applied; source: E. coli BL21(DE3), purified (Ni-NTA, SEC)
Turning to B11, the Kd in the assay with hen egg lysozyme [10] came to 119 ± 9 nM; with hen egg lysozyme [11], 52.9 nM; with hen egg lysozyme [12], 60.5 ± 4.3 nM; in the assay with hen egg lysozyme [13], 33 nM; in the assay with hen egg lysozyme [14], 142 ± 10 nM; with hen egg lysozyme [15] it was 21.2 nM. Further, the Kd in the assay with hen egg lysozyme [16] amounted to 40.8 nM; with hen egg lysozyme [17], 99.2 ± 7.4 nM; with hen egg lysozyme [18], 71.4 ± 5.3 nM; with hen egg lysozyme [19] it was 83.4 ± 6.5 nM; with hen egg lysozyme [6], 1000 nM; in the assay with hen egg lysozyme [20], 26.5 nM. In addition, the koff with hen egg lysozyme [11] is 0.144 s⁻¹; with hen egg lysozyme [13] it was 0.0731 s⁻¹; with hen egg lysozyme [15] it was 0.037 s⁻¹; with hen egg lysozyme [16], 0.102 s⁻¹; in the assay with hen egg lysozyme [20] it was 0.0515 s⁻¹. Further, the on-rate (kon) was determined as 2.72e+06 M⁻¹ s⁻¹ with hen egg lysozyme [11]; 2.21e+06 M⁻¹ s⁻¹ in the assay with hen egg lysozyme [13]; 1.74e+06 M⁻¹ s⁻¹ in the assay with hen egg lysozyme [15]; 2.5e+06 M⁻¹ s⁻¹ in the assay with hen egg lysozyme [16]; 1.94e+06 M⁻¹ s⁻¹ with hen egg lysozyme [20]. In the assay with hen egg lysozyme [6], the “stoichiometry N” value came out at 0.93.

Usually Kd stands for the concentration at which binding is half-saturated. By koff is commonly meant a measure of how fast the partners let go of each other. High values mean a short-lived complex, low ones a long-lived complex. As usually defined, the kon is the second-order rate constant of association. A higher kon goes with fast association. One may read the stoichiometry N as the number of molecules, sites or subunits per partner or assembly.
